Experimental findings from the RNAGym collection of RNA variant scans (doi:10.7554/elife.90254) are described below.

The chains are these.
B1: LINE1-mini (parent)
chain: GGCAGAGCUCAACACAGCGUGGCAAAGUGGCUGUGGCUAGACUGCC

Variants of B1 are the subject of the series. Description: self-cleavage, relative activity (ratio to wild type); higher = more cleavage; in vitro, sequencing; the parent is a self-cleaving ribozyme.
For GGCAGAGCUCAACACAGCGUGGCAAAGUGGCUGAGGCUAGACUGAC [U34A C45A], the self-cleavage amounted to 0.08.

Regarding GGCAGAGCUCAACACAGCGUGGCAAAGUGGCUGAGGCUAGACUGGC [U34A C45G], the self-cleavage is 0.15. Consider GGCAGAGCUCAACACAGCGUGGCAAAGUGGCUGAGGCUAGACUGUC [U34A C45U], for which the self-cleavage is 0.11. For GGCAGAGCUCAACACAGCGUGGCAAAGUGGCUGCGGCUAGAGUGCC [U34C C42G], the self-cleavage turned out to be 0.05.

Take GGCAGAGCUCAACACAGCGUGGCAAAGUGGCUGCGGCUAGAUUGCC [U34C C42U]: the self-cleavage came to 0.12.

On to GGCAGAGCUCAACACAGCGUGGCAAAGUGGCUGCGGCUAGAAUGCC [U34C C42A], for which the self-cleavage is 0.09. GGCAGAGCUCAACACAGCGUGGCAAAGUGGCUGAGGCUAGACUCCC [U34A G44C]: the self-cleavage was determined as 0.04. Take GGCAGAGCUCAACACAGCGUGGCAAAGUGGCUGAGGCUAGACUACC [U34A G44A]: the self-cleavage came out at 0.06.

Consider GGCAGAGCUCAACACAGCGUGGCAAAGUGGCUGAGGCUAGACUUCC [U34A G44U], for which the self-cleavage turned out to be 0.11.

GGCAGAGCUCAACACAGCGUGGCAAAGUGGCUGAUGCUAGACUGCC [U34A G35U]: the self-cleavage was determined as 0.06.

GGCAGAGCUCAACACAGCGUGGCAAAGUGGCUGACGCUAGACUGCC [U34A G35C]: the self-cleavage stood at 0.13. Take GGCAGAGCUCAACACAGCGUGGCAAAGUGGCUGAAGCUAGACUGCC [U34A G35A]: the self-cleavage is 0.07.

As for GGCAGAGCUCAACACAGCGUGGCAAAGUGGCUGCGGGUAGACUGCC [U34C C37G], the self-cleavage turned out to be 0.04. The value for GGCAGAGCUCAACACAGCGUGGCAAAGUGGCUGCGGUUAGACUGCC [U34C C37U] was 0.05; that for GGCAGAGCUCAACACAGCGUGGCAAAGUGGCUGCGGAUAGACUGCC [U34C C37A] was 0.09; that for GGCAGAGCUCAACACAGCGUGGCAAAGUGGCUGCGGCUAGACUGUC [U34C C45U] was 0.14. As for GGCAGAGCUCAACACAGCGUGGCAAAGUGGCUGCGGCUAGACUGGC [U34C C45G], the self-cleavage turned out to be 0.11. Consider GGCAGAGCUCAACACAGCGUGGCAAAGUGGCUGCGGCUAGACUGAC [U34C C45A], for which the self-cleavage amounted to 0.05. Take GGCAGAGCUCAACACAGCGUGGCAAAGUGGCUGCGACUAGACUGCC [U34C G36A]: the self-cleavage came to 0.09. In the case of GGCAGAGCUCAACACAGCGUGGCAAAGUGGCUGCGUCUAGACUGCC [U34C G36U], the self-cleavage is 0.06. Take GGCAGAGCUCAACACAGCGUGGCAAAGUGGCUGCGCCUAGACUGCC [U34C G36C]: the self-cleavage turned out to be 0.08. As for GGCAGAGCUCAACACAGCGUGGCAAAGUGGCUGAGGCUAGAGUGCC [U34A C42G], the self-cleavage stood at 0.04. As for GGCAGAGCUCAACACAGCGUGGCAAAGUGGCUGAGGCUAGAAUGCC [U34A C42A], the self-cleavage is 0.05. Regarding GGCAGAGCUCAACACAGCGUGGCAAAGUGGCUGAGGCUAGAUUGCC [U34A C42U], the self-cleavage turned out to be 0.05. For GGCAGAGCUCAACACAGCGUGGCAAAGUGGCUGAGGCUAGACAGCC [U34A U43A], the self-cleavage was 0.06. Turning to GGCAGAGCUCAACACAGCGUGGCAAAGUGGCUGAGGCUAGACGGCC [U34A U43G], the self-cleavage is 0.04. The result for GGCAGAGCUCAACACAGCGUGGCAAAGUGGCUGAGGCUAGACCGCC [U34A U43C] reads 0.04; that for GGCAGAGCUCAACACAGCGUGGCAAAGUGGCUGAGGCCAGACUGCC [U34A U38C], 0.2. GGCAGAGCUCAACACAGCGUGGCAAAGUGGCUGAGGCAAGACUGCC [U34A U38A]: the self-cleavage turned out to be 0.17.

Turning to GGCAGAGCUCAACACAGCGUGGCAAAGUGGCUGAGGCGAGACUGCC [U34A U38G], the self-cleavage was found to be 0.06. As to GGCAGAGCUCAACACAGCGUGGCAAAGUGGCUGCGGCUAGCCUGCC [U34C A41C], the self-cleavage was 0.05. For the variant GGCAGAGCUCAACACAGCGUGGCAAAGUGGCUGCGGCUAGGCUGCC [U34C A41G], the self-cleavage is 0.07. As to GGCAGAGCUCAACACAGCGUGGCAAAGUGGCUGCGGCUAGUCUGCC [U34C A41U], the self-cleavage worked out at 0.06. Regarding GGCAGAGCUCAACACAGCGUGGCAAAGUGGCUGAGGCUAGACUGCU [U34A C46U], the self-cleavage was 0.09. Consider GGCAGAGCUCAACACAGCGUGGCAAAGUGGCUGAGGCUAGACUGCA [U34A C46A], for which the self-cleavage turned out to be 0.06.

As to GGCAGAGCUCAACACAGCGUGGCAAAGUGGCUGAGGCUAGACUGCG [U34A C46G], the self-cleavage was 0.08. On to GGCAGAGCUCAACACAGCGUGGCAAAGUGGCUGAGGUUAGACUGCC [U34A C37U], for which the self-cleavage turned out to be 0.04. The result for GGCAGAGCUCAACACAGCGUGGCAAAGUGGCUGCGGCUAGACUGCG [U34C C46G] reads 0.1; that for GGCAGAGCUCAACACAGCGUGGCAAAGUGGCUGCGGCUAGACUGCU [U34C C46U], 0.12. The result for GGCAGAGCUCAACACAGCGUGGCAAAGUGGCUGCGGCUAGACUGCA [U34C C46A] reads 0.16; that for GGCAGAGCUCAACACAGCGUGGCAAAGUGGCUGCGGCUCGACUGCC [U34C A39C], 0.09; that for GGCAGAGCUCAACACAGCGUGGCAAAGUGGCUGCGGCUGGACUGCC [U34C A39G], 0.04. For GGCAGAGCUCAACACAGCGUGGCAAAGUGGCUGCGGCUUGACUGCC [U34C A39U], the self-cleavage was 0.07.

Turning to GGCAGAGCUCAACACAGCGUGGCAAAGUGGCUGAGGCUACACUGCC [U34A G40C], the self-cleavage was 0.04. The result for GGCAGAGCUCAACACAGCGUGGCAAAGUGGCUGAGGCUAUACUGCC [U34A G40U] reads 0.06.

In the case of GGCAGAGCUCAACACAGCGUGGCAAAGUGGCUGAGGCUAAACUGCC [U34A G40A], the self-cleavage came to 0.09.

Regarding GGCAGAGCUCAACACAGCGUGGCAAAGUGGCUGCGGCUACACUGCC [U34C G40C], the self-cleavage is 0.02. Consider GGCAGAGCUCAACACAGCGUGGCAAAGUGGCUGCGGCUAAACUGCC [U34C G40A], for which the self-cleavage came out at 0.11. In the case of GGCAGAGCUCAACACAGCGUGGCAAAGUGGCUGCGGCUAUACUGCC [U34C G40U], the self-cleavage worked out at 0.1.

Take GGCAGAGCUCAACACAGCGUGGCAAAGUGGCUGCGGCUAGACUGCC [U34C]: the self-cleavage is 0.13. The value for GGCAGAGCUCAACACAGCGUGGCAAAGUGGCUGCUGCUAGACUGCC [U34C G35U] was 0.18; that for GGCAGAGCUCAACACAGCGUGGCAAAGUGGCUGCAGCUAGACUGCC [U34C G35A] was 0.05. The result for GGCAGAGCUCAACACAGCGUGGCAAAGUGGCUGCCGCUAGACUGCC [U34C G35C] reads 0.06; that for GGCAGAGCUCAACACAGCGUGGCAAAGUGGCUGAGUCUAGACUGCC [U34A G36U], 0.04. The result for GGCAGAGCUCAACACAGCGUGGCAAAGUGGCUGAGCCUAGACUGCC [U34A G36C] reads 0.03; that for GGCAGAGCUCAACACAGCGUGGCAAAGUGGCUGAGACUAGACUGCC [U34A G36A], 0.09.
